The source of these data is the RNAGym collection of RNA variant scans (doi:10.7554/elife.80360).

B1: Twister Ribozyme (parent)
chain: AACACUGCCAAUGCCGGUCCCAAGCCCGGAUAAAAGUGGAGGGGGCGG

The variants in the data set derive from B1. Nature of the data set: self-cleavage, relative activity (ratio to wild type); higher = more cleavage; co-transcriptional.
Regarding A2G G48C, the self-cleavage was 0.389.
For G13A A30G the value was 0.742.
For the variant A1C G38U, the self-cleavage turned out to be 0.22.
In the case of G13C A34G, the self-cleavage was 0.253.
As to A4U A30U, the self-cleavage is 0.11.
For U31G U37A the value was 0.818; for C46G G48U, 1.52; for G24A C25A, 0.115.
Next, C15A C27U: 0.0943.
Next, U37A G48C: 0.865; G13A G39C: 0.168; A1G G48A: 0.414.
Take A10U C27A: the self-cleavage stood at 0.645.
Next, G7U C46G: 0.047.
As to A30G G45C, the self-cleavage is 0.571.
Next, C19U G45A: 0.915; C3A U12G: 0.159.
For C20U G41A the value was 0.124; for G36A G42U, 0.128; for U12G A34U, 0.701.
For the variant C19A G41C, the self-cleavage amounted to 0.114.
As for U18C C46A, the self-cleavage was determined as 0.463.
Next, G28U G41A: 0.459; C21A A30G: 0.0944.
Turning to U6A U31A, the self-cleavage turned out to be 0.717.
Take U6C C46G: the self-cleavage was found to be 0.589.
For G29U U31G, the self-cleavage was 0.92.
Next, C5A C27A: 0.0839; A4U C15G: 0.0221; C9G U31C: 0.722.
Next, C3U A40G: 0.0544; C5A G13C: 0.105.
For A11U G16A the value was 0.804; for C19G A22G, 0.0844.
Regarding C26G G39U, the self-cleavage turned out to be 0.103.
On to A33C G38C, for which the self-cleavage turned out to be 0.918.
As for C3G G39C, the self-cleavage was determined as 0.0914.
For A2U A33U the value was 0.655.
Regarding A2C A4G, the self-cleavage was found to be 0.0453.
For A30U G38A the value was 0.987; for A33G G41C, 0.197; for A11G A32C, 0.925.
For C26A G28C the value was 0.48; for G29U C46G, 0.88; for A33U G47C, 0.439.
On to G13U C27A, for which the self-cleavage came out at 0.0958.
With A2U A34G, the self-cleavage came to 0.292.
Next, C20U G44C: 0.816.
Turning to A33G G43A, the self-cleavage is 0.268.
Next, C3G G24U: 0.0918; G13U G43U: 0.155.
Take C20G G42C: the self-cleavage is 0.791.
On to C20G G42A, for which the self-cleavage stood at 0.083.
On to C19A A23C, for which the self-cleavage was 0.126.
For C21U A33U the value was 0.0831; for C14G C46A, 0.078.
Next, C20G A32U: 0.0524; A11U C27G: 0.104.
Regarding U18C G48C, the self-cleavage is 0.562.
Next, U18C G48A: 0.368; A4G G28U: 0.644; A4G G28A: 0.58.
Regarding U6G A22G, the self-cleavage worked out at 0.106.
C3A G29C: the self-cleavage stood at 0.184.
For the variant C26U G28C, the self-cleavage stood at 0.134.
A30U G43A: the self-cleavage amounted to 0.278.
For G36U G45C the value was 0.199; for U6G C8U, 0.16; for G39U G47A, 0.14.
For C3U A11C the value was 0.191; for A32C G43C, 0.153.
As to C15G G29A, the self-cleavage stood at 0.104.
For C21U G48U the value was 0.125; for C21A G47U, 0.117.
On to A1C A33G, for which the self-cleavage is 0.116.
With C15G C19U, the self-cleavage worked out at 0.0895.
For C19U G29A the value was 0.806.
For A32G C46A the value was 0.753; for A35C U37C, 0.592; for U12A A35U, 1.06.
For G28A G48A the value was 0.775.
Consider U31A U37C, for which the self-cleavage amounted to 0.591.
Next, G16C G48C: 0.709; A23C U31C: 0.247; A11G A23C: 0.422.
On to C3A A32G, for which the self-cleavage came to 0.0493.
Next, A11G C20U: 0.797; U12A G29A: 1.11; A11C G38C: 0.731.
Next, C3A A22G: 0.0923.
On to C5A A30G, for which the self-cleavage came to 0.491.
Next, A23G G41U: 0.0995; A4C A34C: 0.0803; U6C A33G: 0.429.
For C14U A40U the value was 0.191; for C14U A40C, 0.256; for A4U G47C, 0.111.
Regarding C8U G39U, the self-cleavage came out at 0.136.
Next, C5U U31A: 0.577; G16C G28C: 0.306.
As to C27G G28U, the self-cleavage was determined as 0.0803.
On to A2U, for which the self-cleavage was determined as 0.738.
For C3U G28A the value was 0.409.
With C9A A34C, the self-cleavage came to 0.18.
Next, A11C C15U: 0.545; G16U A35C: 0.961.
Next, A10G G42A: 0.509; U12G U31C: 0.907; A10G C21U: 0.162.
Regarding C25A G41U, the self-cleavage worked out at 0.0916.
Next, A11U C21A: 0.114.
For C5U A33G the value was 0.631; for G17C G41C, 0.104.
Next, A4C C20U: 0.0732.
As for G24A G38C, the self-cleavage is 0.106.
Turning to A10C A35C, the self-cleavage is 1.08.
Next, C9U G17U: 0.102; G16A A40C: 0.122; A22G C27G: 0.084.
Next, A23C A40C: 0.0967; A40C G43C: 0.157.
For A4C C26G the value was 0.103; for A33G G36C, 0.303; for G13C G17A, 0.0829.
As for A1U G36A, the self-cleavage worked out at 0.0371.
G45A G48C: the self-cleavage worked out at 1.02.
For A22U G36A the value was 0.179; for C19G G41C, 0.136.
For A10C G36A the value was 0.794.
For G44A G47A the value was 0.867.
Turning to G13A C14A, the self-cleavage worked out at 0.685.
For C21U C26U, the self-cleavage is 0.0769.
With G13C G28C, the self-cleavage turned out to be 0.31.
For A30C A32U the value was 0.9; for A1C G16C, 0.192.
For A33U G41C the value was 0.18; for G36A G41A, 0.13; for A2C G45A, 0.0666.
Next, G29C G48U: 0.642; C14A A33C: 0.884; C14A A33G: 0.84.
For C21G G42U, the self-cleavage stood at 0.111.
For C21G U37A the value was 0.101; for C19G A23C, 0.0786.
Consider G7A A32C, for which the self-cleavage was 0.38.
For C8U G43C the value was 0.101.
As to U12G G43C, the self-cleavage worked out at 0.274.
Consider C27A U31C, for which the self-cleavage worked out at 0.495.
For A1G C9G the value was 0.315.
For C15U C46U the value was 0.917; for A40U G47C, 0.142; for A23G G28A, 0.284.
For G17A C20G the value was 0.0402; for A22G A30U, 0.316.
Consider C9A U12A, for which the self-cleavage worked out at 0.916.
For C15A G39U the value was 0.172.
Regarding C15A C19U, the self-cleavage came out at 0.566.
For A30G C46U the value was 0.779; for G38U G41A, 0.162.
Next, A11U G42A: 0.557; A23G G39U: 0.142.
For A10C G39A the value was 0.601.
For the variant G13U G45C, the self-cleavage came out at 0.194.
For A1U A10U the value was 0.0883.
For G16C A40C, the self-cleavage amounted to 0.0741.
For C20A G28C the value was 0.125; for C20A G28U, 0.0952.
